In publication PMC3785480, “BB0347, from the Lyme Disease Spirochete Borrelia burgdorferi, Is Surface Exposed and Interacts with the CS1 Heparin-Binding Domain of Human Fibronectin” (PLoS ONE, 2013):

Biological target: T1, recombinant BB0347 (Borrelia burgdorferi)
T1 construct: also called rBB0347; source: E. coli Rosetta(DE3)pLysS, pET200, purified (MagneHis nickel particles, dialysed into PBS)
Assay: ELISA; FnHBD assay: coated plate treated with varying concentrations of rBB0347, 37°C, 1.5 h; detected with rabbit polyclonal anti-BB0347; KD = concentration of added protein at half-maximal binding, assuming saturation
Settings: both partners purified

B1: peptide fragment containing the CS1 heparin-binding domain (HBD) of human Fn (domain or fragment)
chain: AIPAPTDLKFTQVTPTSLSAQWTPPNVQLTGYRVRVTPKEKTGPMKEINLAPDSSSVVVSGLMVATKYEVSVYALKDTLTSRPAQGVVTTLENVSPPRRARVTDATETTITISWRTKTETITGFQVDAVPANGQTPIQRTIKPDVRSYTITGLQPGTDYKIYLYTLNDNARSSPVVIDASTAIDAPSNLRFLATTPNSLLVSWQPPRARITGYIIKYEKPGSPPREVVPRPRPGVTEATITGLEPGTEYTIYVIALKNNQKSEPLIGRKKT
Kd: 180 ± 14 nM
